Experiment [1] concerns the target T1, human VEGF (human, UniProt P15692-4 27-191).
T1 construct: Bought recombinant protein; also called hVEGF; human VEGF-A
The experiment can be described thus: ELISA, human VEGF coated, anti-human Fc-HRP, absorbance 450 nm [a]. Here is the method: 1.5 ng of human VEGF diluted in 150 μL of buffer solution was placed in 96-well immune plate (Nunc, USA), and adsorbed at 4° C. overnight, followed by washing 3 times with a buffer solution containing 0.1% Tween 20. Then, they were reacted with a buffer solution including 1% bovine serum albumin (Sigma, USA) for 1 hr at room temperature, and washed 3 times. Then each well was treated with 150 μL of serially diluted antibody (1 ng/mL, 10 ng/mL, 30 ng/mL, 100 ng/mL, 1000 ng/mL and 3000 ng/mL) They were allowed to react for 1 hr at room temperature so that antigens may bind to antibodies, followed by washing 3 times with a buffer solution.
Each well was treated at 150 μL per well with anti-human immunoglobulin Fc-HRP antibody (AbSerotec, USA) diluted 1:20000 and allowed to react for 1 hr at room temperature. After the reaction was completed, washing was performed 3 times with a buffer solution, followed by addition of 150 μL of TMB (Sigma, USA) and color development for 10 min. The reaction was terminated with 1N sulfuric acid solution, and absorbance was measured at 450 nm using a spectrophotometer (Molecular Device, USA).
A general note: An ELISA detects its analyte on a solid surface through an enzyme-linked reagent.

For experiment [2], the target named is T2, mouse VEGF (mouse, UniProt Q00731-2 27-190).
T2 construct: Bought recombinant protein; also called mVEGF-A; mouse VEGF-A
T2 sequence (looked up): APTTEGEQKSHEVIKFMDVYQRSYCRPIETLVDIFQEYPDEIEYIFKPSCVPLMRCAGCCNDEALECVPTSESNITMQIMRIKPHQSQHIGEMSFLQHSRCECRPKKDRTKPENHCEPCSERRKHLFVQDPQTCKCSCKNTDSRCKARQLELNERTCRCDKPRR
The experiment can be described thus: ELISA, 0.2 µg/ml VEGF coated, scFv or IgG serially diluted. As to the method:
ELISA plates were coated with 0.2 μg/ml of human VEGF and mouse VEGF (R&D systems, USA) respectively, and the purified proteins obtained in Example 5 in the form of scFv expressed by HB2151 or IgG expressed by 293F cells were incubated at serially diluted concentrations.

B1: clone F (antibody, V domains shown)
VH: AVTLHESGGGLQTPGGALSLVCKASGFTFSSHGMQWVRQAPGKGLEYVAGISSDGSWTGYGAAVKGRATISRDNGQSTVRLQLNNLRAEDTATYYCARDFSTSYGADSIDAWGHGTEVIVSS
VL: LTQPSSVSANPGETVKITCSGGSNSAYGYGWYQQKSPGSAPVTLIYWDDKRPSDIPSRFSGSASGSTATLTITGVRAEDEAVYFCGAWEYSSDVGIFGAGTTLTVL
notes: Clone from an immunized chicken scFv phage library; also called mother clone F; F clone
Regarding B1, the binding result in experiment [1] and in experiment [2] was “binds” throughout.

The values above are taken from patent US20160122426A1 (DONG A SOCIO, published 2016).
